Changes are numbered by the printed parent chain. Each block holds one binder with its values, some of them ahead of it.
Legend:
hVISTA-COMP-his [1] = biological target: T1, hVISTA-COMP-his (Homo sapiens, UniProt Q9H7M9); assay: SPR
Target sequence in this assay (Q9H7M9 whole entry, looked up, tested part not stated): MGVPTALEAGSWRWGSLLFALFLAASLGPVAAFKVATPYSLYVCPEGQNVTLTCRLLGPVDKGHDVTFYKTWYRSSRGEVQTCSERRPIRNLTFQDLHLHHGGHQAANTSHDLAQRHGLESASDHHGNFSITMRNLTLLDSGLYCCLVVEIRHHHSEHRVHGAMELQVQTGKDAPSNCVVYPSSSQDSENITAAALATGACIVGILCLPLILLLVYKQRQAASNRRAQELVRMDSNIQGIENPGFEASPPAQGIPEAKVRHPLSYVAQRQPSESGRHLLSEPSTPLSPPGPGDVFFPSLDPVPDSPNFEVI

mVISTA-COMP-his = mVISTA-COMP-his (Mus musculus, UniProt Q9D659); assay: SPR
hVISTA-Fc = hVISTA-Fc (Homo sapiens (Human)., UniProt Q9H7M9); assay: SPR
hVISTA-COMP-his [2] = biological target: T1, hVISTA-COMP-his
Target sequence in this assay (Q9H7M9 33-168): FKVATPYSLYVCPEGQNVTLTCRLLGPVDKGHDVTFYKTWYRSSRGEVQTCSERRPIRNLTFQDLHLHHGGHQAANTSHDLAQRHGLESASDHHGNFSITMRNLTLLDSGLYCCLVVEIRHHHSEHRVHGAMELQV

mVISTA-COMP-his, sequence (Q9D659 whole entry, looked up, tested part not stated): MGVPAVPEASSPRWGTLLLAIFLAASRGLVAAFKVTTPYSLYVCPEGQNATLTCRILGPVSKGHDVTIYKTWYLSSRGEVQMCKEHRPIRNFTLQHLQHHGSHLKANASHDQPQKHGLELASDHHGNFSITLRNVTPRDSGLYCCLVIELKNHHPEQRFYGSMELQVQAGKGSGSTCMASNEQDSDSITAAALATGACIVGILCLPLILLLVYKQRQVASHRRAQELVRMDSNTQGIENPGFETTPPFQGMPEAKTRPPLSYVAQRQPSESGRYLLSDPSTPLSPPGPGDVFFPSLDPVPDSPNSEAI
hVISTA-Fc, sequence (Q9H7M9 33-194): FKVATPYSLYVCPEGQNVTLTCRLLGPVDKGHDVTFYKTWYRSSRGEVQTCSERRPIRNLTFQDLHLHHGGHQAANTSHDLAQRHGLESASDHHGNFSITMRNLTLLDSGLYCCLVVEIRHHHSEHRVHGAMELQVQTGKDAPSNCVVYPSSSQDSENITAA

Kd (hVISTA-COMP-his [1]): 0.14 nM
binding result (mVISTA-COMP-his): no binding
B1: murine anti-hVISTA mAb 7G5 (antibody, V domains shown)
VH: QIQLVQSGPELKKPGETVKISCKASGYTFTNYGMNWVKQAPEKGLKWMGWINTYTGEPTYADDFKGRFAFSLETSASTAYLQINNLKNEDTATYFCARRSNPWPNDYWGQGTSLTVSS
VL: DIQMTQSPSSFSASLGERVSLTCRASQEISGYLSWLQQKPDGTIKRLIYAASTLDSGVPKRFSGSRSGSDYSLTISSLESEDFADYYCLQYASYPWTFGGGTKLEIK

Kd (hVISTA-Fc): 7.5 nM
B2: anti-hVISTA nanobody hVISTANb7 (VHH)
VHH: QVQLQESGGGLVYPGGSLRLSCTASGFAFTNAYMNWVRQAPGKGAEWVSGITRDSNRTSYADSVKGRFTISRDNAKNTLYLQMDSLKSDDTALYYCNAEPSGWWLDDDYWGQGTQVTVSS

Kd (hVISTA-COMP-his [1]): 0.44 nM
binding result (mVISTA-COMP-his): no binding
B3: murine anti-hVISTA mAb 7E12 (antibody, V domains shown)
VH: DVHLQESGPGLVKPSQSLSLTCSVTGYSITSGYYWNWIRQFPGNKLEWMGYISYDGNNNYNPSLKNRISITRDTSKNQFFLKLNSVTTEDTATYYCARGDYGSEAMDYWGQGTSVTVSS
VL: DIRVTQSPASLAVSLGQRATISCRASKSVSTSGYSYMNWYQQKPGQPPQLLIYLASNLESGVPARFSGSGSGTDFTLNIHPVEEEDAAIYYCQHSRELPWTFGGGTKLEIK

binding result (hVISTA-COMP-his [2]): binds
B4: Nb3 [hVISTANb3] (VHH)
VHH: QVQLQESGGGLVHPGGSLRLSCAASGSVGTIFSMGWFRQAPGVQREMVATITNSGETNYAAFVKGRFTITRDNAQNTVYLQMNSLKPEDTAAYYCNAFDYVGGRTYELPYWGQGTQVTVSS

binding result (hVISTA-COMP-his [2]): binds
B5: Nb2 [hVISTANb2] (VHH)
VHH: B4 VHH with T70S, Q75E, V78M, Q81E, S84D

Kd (hVISTA-Fc): 11 nM
B6: anti-hVISTA nanobody hVISTANb1 (VHH)
VHH: B4 VHH with H13Q, T70S, Q75E

binding result (hVISTA-COMP-his [2]): binds
B7: Nb6 [hVISTANb6] (VHH)
VHH: B4 VHH with V28G, G29V, T70S, T77A

Kd (hVISTA-COMP-his [1]): 49 nM
Kd (mVISTA-COMP-his): 51 nM
B8: rat anti-hmVISTA mAb 7C7 (antibody, V domains shown)
VH: EVQLVESGGGLVQPGRSLKLSCVASGFTFNKYWMSWTRQAPGKGLEWVASITNSGGNTYYPDSVKGRFTISRDNAQNTLYLQMNSLRSEDTATYYCTLGVDYWGQGAMVTVSS
VL: DVVMTQTPPSLSVTIGQSVSISCKSSQSLVYSDGKTYLHWLLQSSGRSPKRLIYQVSNLASGVPDRFSGTGSQKDFTLKISRVEAKDLGVYYCAQTTHFPYTFGAGTKLEMK
